Experimental data published in article PMC9714796.

Target: TGF-βRII-Fc (muTGFbRII-mFc) (mouse (from the printed name muTGFbRII-mFc)) (UniProt Q62312)
Assay: SPR; Biacore T100; TGF-βRII-Fc captured (~50 RU) by an anti-mouse Fc antibody amine-coupled to a CM5 chip; TGF-β2 injected at 0.04-90 nM (0.12-90 nM used for the fit); HBS-EP with 350 mM NaCl and 0.5 mg/mL BSA; steady-state affinity model

Sequence of TGF-βRII-Fc (muTGFbRII-mFc) (mouse (from the printed name muTGFbRII-mFc)) (Q62312 24-166): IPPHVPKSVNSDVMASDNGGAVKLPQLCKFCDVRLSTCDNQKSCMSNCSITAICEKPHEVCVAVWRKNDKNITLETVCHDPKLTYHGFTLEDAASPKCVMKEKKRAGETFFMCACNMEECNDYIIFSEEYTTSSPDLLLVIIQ

Which Kd does the source give for “Transforming growth factor-β2 (TGF-β2) (ligand)” here?
Its Kd is 0.0116 µM.
